# Columns and labels:
# [1] = molecular target: full-length rat GCGR transiently expressed on HEK293 reporter cells (rat) (UniProt P30082); assay: cell-based or functional assay
# [2] = molecular target: full-length mouse GCGR (mouse) (UniProt Q61606); assay: cell-based or functional assay
# Chain of full-length mouse GCGR (mouse) (Q61606 27-485 limits assumed): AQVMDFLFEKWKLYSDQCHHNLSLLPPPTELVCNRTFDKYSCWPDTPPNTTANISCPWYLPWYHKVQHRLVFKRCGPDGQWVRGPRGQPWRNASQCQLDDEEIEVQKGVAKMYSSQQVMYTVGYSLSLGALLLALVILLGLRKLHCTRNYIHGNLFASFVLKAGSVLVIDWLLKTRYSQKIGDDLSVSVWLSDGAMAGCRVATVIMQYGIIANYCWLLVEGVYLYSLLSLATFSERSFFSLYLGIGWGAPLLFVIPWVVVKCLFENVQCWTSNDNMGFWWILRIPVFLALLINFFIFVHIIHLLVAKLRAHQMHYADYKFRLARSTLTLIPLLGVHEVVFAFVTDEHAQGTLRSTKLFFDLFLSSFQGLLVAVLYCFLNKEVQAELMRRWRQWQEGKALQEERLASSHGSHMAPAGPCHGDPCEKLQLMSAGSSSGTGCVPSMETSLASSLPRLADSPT
# Chain of full-length rat GCGR transiently expressed on HEK293 reporter cells (rat) (P30082 27-485 limits assumed): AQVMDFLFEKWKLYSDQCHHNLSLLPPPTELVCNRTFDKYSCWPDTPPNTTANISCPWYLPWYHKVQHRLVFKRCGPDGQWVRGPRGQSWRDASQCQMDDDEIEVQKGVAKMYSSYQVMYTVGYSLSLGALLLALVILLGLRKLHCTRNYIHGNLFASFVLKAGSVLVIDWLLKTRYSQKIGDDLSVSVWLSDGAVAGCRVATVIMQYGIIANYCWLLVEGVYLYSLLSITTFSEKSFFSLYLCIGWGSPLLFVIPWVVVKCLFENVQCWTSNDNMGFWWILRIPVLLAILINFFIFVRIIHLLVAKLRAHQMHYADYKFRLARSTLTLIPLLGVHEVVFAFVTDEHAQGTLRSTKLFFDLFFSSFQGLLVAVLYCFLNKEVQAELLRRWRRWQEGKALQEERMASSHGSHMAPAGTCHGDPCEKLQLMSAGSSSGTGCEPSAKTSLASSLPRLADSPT
substance,measurement,setting,value
glucagon (from UniProt P01275 53-81) (ligand),EC50 of luciferase (cAMP/CRE reporter) stimulation in HEK293/GCGR cells,[1],0.252 nM
same,EC50 of luciferase (cAMP/CRE reporter) stimulation in HEK293/GCGR cells,[2],0.083 nM

# — US20160257757A1
